Measurements taken from US20240358731A1, “SUMO PATHWAY AS AN OXYGEN SENSOR RELEVANT TO THE PATHOPHYSIOLOGY OF PULMONARY ARTERY HYPERTENSION AND CARDIAC ARRHYTHMIA” (Northeastern University, priority 2023, published 2024).

Target: T1, Kir2.4 (Homo sapiens, UniProt Q9UNX9)
T1 sequence (Q9UNX9 1-436): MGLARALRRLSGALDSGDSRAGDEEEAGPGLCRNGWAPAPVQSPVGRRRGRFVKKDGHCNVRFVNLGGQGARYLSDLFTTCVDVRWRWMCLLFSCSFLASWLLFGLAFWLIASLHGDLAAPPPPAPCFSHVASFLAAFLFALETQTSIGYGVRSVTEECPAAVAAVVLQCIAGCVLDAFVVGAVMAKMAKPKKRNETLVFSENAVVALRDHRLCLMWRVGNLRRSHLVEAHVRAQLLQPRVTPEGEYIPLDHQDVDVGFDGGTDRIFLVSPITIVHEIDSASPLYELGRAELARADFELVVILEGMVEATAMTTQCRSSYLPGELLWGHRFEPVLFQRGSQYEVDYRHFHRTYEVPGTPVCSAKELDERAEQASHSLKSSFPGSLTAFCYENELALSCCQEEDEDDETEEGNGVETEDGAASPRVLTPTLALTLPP
Test: Two-electrode voltage-clamp of Kir2.4 currents in Xenopus oocytes
Format: cell-based
Set-up: expressed in transfected cells; host or cells: Xenopus oocytes (RNA injection)
Conditions: expression of SENP1
From the text: FIG. 5A discloses SEQ ID NOS 6-9, respectively, in order of appearance. […] SENP1 increases the current. […] SUMO sensitivity is transferred to Kir2.3 when the site in Kir2.1 is recreated by mutagenesis (Kir2.3-N25D).
Co-expressed SUMO decreases Kir2.4 currents in Xenopus oocytes. Using the SUMOplot algorithm to assess potential SUMOylation sites based on the canonical motif ψ-K-X-E/D, we identified the high probability SUMO site V-K54-K-D (SEQ ID NO: 4) in the N-terminal sequence of Kir2.4. SUMO covalently modifies Kir2.4 at K54 (FIG. 5) and tested the idea using two-electrode voltage-clamp (TEVC), a sensitive assay to study the regulation of Kir channels. Kir2.4 currents, assessed at −80 mV in a high K^+ (96 mM) bath solution, decreased in a dose-dependent manner with co-expression of SUMO1 (FIG. 5). Co-injection of 5 ng of human SUMO1 RNA decreased Kir2.4 currents by ˜50%. In contrast, expression of SENP1 increased Kir2.4 by ˜50%. […] The analogous sequence in Kir2.2 and Kir2.3 is V-K-K-N(SEQ ID NO: 5), which lacks the terminal aspartic acid, reduced the probability of SUMOylation from 0.93 to 0.31. Consistent with this, Kir2.3 currents were insensitive to SUMO1 and SENP1. […] This last result is consistent with a protein-protein interaction between the channel and SUMO1.

increase of Kir2.4 currents: ~50%
B1: SENP1: purified deSUMOylating enzyme (SUMO specific protease) introduced via the recording pipette or expressed (protein, UniProt Q9P0U3 1-644, looked up)
Sentrin-specific protease 1: MDDIADRMRMDAGEVTLVNHNSVFKTHLLPQTGFPEDQLSLSDQQILSSRQGHLDRSFTCSTRSAAYNPSYYSDNPSSDSFLGSGDLRTFGQSANGQWRNSTPSSSSSLQKSRNSRSLYLETRKTSSGLSNSFAGKSNHHCHVSAYEKSFPIKPVPSPSWSGSCRRSLLSPKKTQRRHVSTAEETVQEEEREIYRQLLQMVTGKQFTIAKPTTHFPLHLSRCLSSSKNTLKDSLFKNGNSCASQIIGSDTSSSGSASILTNQEQLSHSVYSLSSYTPDVAFGSKDSGTLHHPHHHHSVPHQPDNLAASNTQSEGSDSVILLKVKDSQTPTPSSTFFQAELWIKELTSVYDSRARERLRQIEEQKALALQLQNQRLQEREHSVHDSVELHLRVPLEKEIPVTVVQETQKKGHKLTDSEDEFPEITEEMEKEIKNVFRNGNQDEVLSEAFRLTITRKDIQTLNHLNWLNDEIINFYMNMLMERSKEKGLPSVHAFNTFFFTKLKTAGYQAVKRWTKKVDVFSVDILLVPIHLGVHWCLAVVDFRKKNITYYDSMGGINNEACRILLQYLKQESIDKKRKEFDTNGWQLFSKKSQEIPQQMNGSDCGMFACKYADCITKDRPINFTQQHMPYFRKRMVWEILHRKLL
